The values below come from patent US20230330254A1 (Regeneron Pharmaceuticals, Inc., priority 2022, published 2023).

For test [1], the target named is T1, hGLP1R-MMH (N-terminal region of human GLP1R) (Homo sapiens, UniProt P43220).
T1 construct: the N-terminal ectodomain of human GLP1R expressed with a myc-myc hexahistidine tag
In words: Biacore binding kinetics (surface plasmon resonance). The note with it: 25° C.; for Ka: association rate. How it is done:
The equilibrium dissociation constant (KD) for GLP1R binding to different unconjugated GLP1R monoclonal antibodies (mAbs) or to GLP1R antibody tethered drug conjugates (ATDCs) was determined using a real-time surface plasmon resonance biosensor using a Biacore 3000, Biacore S200, Biacore 4000, Biacore T-200, or a Sierra Sensor MASS-2 instrument. All binding studies were performed in 10 mM HEPES, 150 mM NaCl, 3 mM EDTA, and 0.05% v/v Surfactant Tween-20, pH 7.4 (HBS-ET) running buffer at 25° C. The Biacore CM5 sensor chip surface was first derivatized by amine coupling with human Fc specific mouse mAb (REGN2567) to capture different GLP1R mAbs or ATDCs. Different concentrations (100, 90, 33.3, 30, 11.1, 10, 3.7, 3.3 and 1.1 nM) of the N-terminal region of human GLP1R expressed with a myc-myc-hexahistidine tag (“hexahistidine tag” disclosed as SEQ ID NO: 441) (hGLP1R-MMH) prepared in HBS-ET running buffer were injected over the GLP1R mAb captured surface for 240 or 300 sec at a flow rate of 50 μL/min and their dissociation in HBS-ET running buffer was monitored for 10 minutes. At the end of each cycle, the GLP1R mAb or ATDC capture surface was regenerated using a 10 sec injection of 20 mM phosphoric acid.
The association rate (ka) and dissociation rate (kd) were determined by fitting the real-time binding sensorgrams to a 1:1 binding model with mass transport limitation using Scrubber 2.0c curve-fitting software. Binding dissociation equilibrium constant (KD) and dissociative half-life (t %2) were calculated from the kinetic rates as: […]
For orientation: Surface plasmon resonance follows binding to a sensor surface in real time, without labels.

Test [2] has as its system HEK293/CRE-Luc cells. In words: Flow cytometry cell binding, HEK293/CRE-Luc control cells (Example 18). On the set-up: species or system human. To be noted: Table 30, control cells lacking GLP1R; for EC50: no unit printed in table (text reads values as M); for HEK293/CRE-Luc Flow S/N: signal to noise. How it is done:
GLP1R agonist linker payloads were conjugated to anti-GLP1R antibodies via N-terminal heavy or light chain Glutamine (Q) tags. Several resulting anti-GLP1R-GLP1R agonist antibody tethered drug conjugates (ATDCs) and their unconjugated parental antibodies were tested for cell-based binding activity. The cell surface binding of the anti-GLP1R ATDCs to human GLP1R (HEK293/CRE-Luc/hGLP1R), cynomolgus GLP1R (HEK293/CRE-Luc/mfGLP1R), and control cells lacking expression of GLP1R (HEK293/CRE-Luc) was assessed via flow cytometry. For the assay, 61,000-230,000 cells were suspended in PBS, w/2% FBS and 0.2% sodium azide (staining buffer) in 96 well V-bottom plates and incubated for 30 minutes at 4° C. with three-fold serial dilutions of the anti-GLP1R ATDCs, non-binding control ATDCs, or unconjugated anti-GLP1R antibodies. The last well in each row of the plate served as a blank control containing only secondary antibody and was plotted as a continuation of the 3-fold serial dilution. […] Cells were then washed once and stained with a cell viability dye (Live/dead Fixable Green Dead Cell Stain Kit for 488 nm excitation, Molecular Probes cat #L34970) at 1× in PBS for 20 minutes at 4° C. Cells were washed once in staining buffer, fixed for 20 minutes at 4° C. using a 50% solution of Cytofix (BD Biosciences, Cat #554655) diluted in PBS, and washed again in staining buffer. Samples were filtered through Pall 96 well plate PP/PE mesh filter system and collected in Costar 96 well plate. Samples were run on the iQue flow cytometer (Intellicyte) and results were analyzed using Forecyte analysis software (Intellicyte) to calculate the mean fluorescent intensity (MFI) after gating for live cells. EC50 values were determined using a four-parameter logistic equation over a 10-point dose response curve (GraphPad Prism). The signal to noise (S/N) was determined by taking the ratio of the highest MFI on the dose response curve to the MFI in the secondary alone wells.
(In flow cytometry, cells or beads pass a laser one at a time.)

In test [3] the target is T2, human GLP1R (Homo sapiens, UniProt P43220).
T2 construct: engineered to express full-length human GLP1R, cynomolgus GLP1R; expressed in transfected cells; host or cells: HEK293/CRE-Luc
In words: Flow cytometry cell binding, HEK293/CRE-Luc/hGLP1R (Example 18). The note with it: Table 30, no unit printed in table (text b1840 reads values as M), experiments A, C, D. How it is done: GLP1R agonist linker payloads were conjugated to anti-GLP1R antibodies via N-terminal heavy or light chain Glutamine (Q) tags. […] The cell surface binding of the anti-GLP1R ATDCs to human GLP1R (HEK293/CRE-Luc/hGLP1R), cynomolgus GLP1R (HEK293/CRE-Luc/mfGLP1R), and control cells lacking expression of GLP1R (HEK293/CRE-Luc) was assessed via flow cytometry. […] The last well in each row of the plate served as a blank control containing only secondary antibody and was plotted as a continuation of the 3-fold serial dilution. […] Samples were filtered through Pall 96 well plate PP/PE mesh filter system and collected in Costar 96 well plate. Samples were run on the iQue flow cytometer (Intellicyte) and results were analyzed using Forecyte analysis software (Intellicyte) to calculate the mean fluorescent intensity (MFI) after gating for live cells. EC50 values were determined using a four-parameter logistic equation over a 10-point dose response curve (GraphPad Prism). The signal to noise (S/N) was determined by taking the ratio of the highest MFI on the dose response curve to the MFI in the secondary alone wells.

T1 sequence (P43220 24-139 limits assumed): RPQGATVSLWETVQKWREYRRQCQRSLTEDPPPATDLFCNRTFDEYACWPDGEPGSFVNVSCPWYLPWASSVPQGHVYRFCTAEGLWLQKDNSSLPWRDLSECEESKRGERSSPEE
T2 sequence (P43220 24-463): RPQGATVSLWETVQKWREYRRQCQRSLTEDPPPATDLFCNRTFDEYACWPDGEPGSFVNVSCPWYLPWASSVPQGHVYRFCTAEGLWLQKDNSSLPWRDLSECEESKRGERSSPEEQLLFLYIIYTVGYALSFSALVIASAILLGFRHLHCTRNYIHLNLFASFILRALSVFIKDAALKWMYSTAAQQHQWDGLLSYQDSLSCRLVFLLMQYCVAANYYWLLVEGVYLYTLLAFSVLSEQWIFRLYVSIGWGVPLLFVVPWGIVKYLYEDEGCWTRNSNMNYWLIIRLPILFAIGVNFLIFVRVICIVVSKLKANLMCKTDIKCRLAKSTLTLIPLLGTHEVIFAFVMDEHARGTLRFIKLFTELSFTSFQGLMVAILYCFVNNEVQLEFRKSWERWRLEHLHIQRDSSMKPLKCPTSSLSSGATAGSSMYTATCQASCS

B1: H2aM30341N (antibody, V domains shown)
VH: QVQLQQWGAGLLKPSETLSLTCAVYGGSFSGYYWSWIRQPPGKGLEWIGEINHAGSTNYNPSLKSRITISVDTSKNQFSLKLSSVTAADTAVYYCARGWYYGSGSYHRNWFDPWGQGTLVTVSS
VL: EIVLTQSPGTLSLSPGERATLSCRASQSVYYSYLAWYQQKPGQAPRLLIYGASNRATGIPDRFSGSGSGTDFTLTISRLEPEDFAVYYCQQYGNSPWTFGQGTKVEIK
What is called EC50 is the midpoint of the concentration-response curve. A higher EC50 goes with a need for much substance. In the case of B1, in test [1] (hGLP1R-MMH), the Ka came out at 224000 M⁻¹ s⁻¹ and the “dissociation rate constant (kd)” value was found to be 7.74e-05 s⁻¹. In addition, in test [2], the EC50 was above 100 nM and the “HEK293/CRE-Luc Flow S/N” value came out at 11.8.

B2: REGN8051 (antibody, V domains shown)
VH: QVQLVESGGGVGQPGRSLRLSCAASGFTFSRNAMHWVRQAPGKGLEWVAVISYDGSNKHYADSVKGRFTISRDNSKNTLYLEMNSLRVEDTAVYYCAKGGIPFDYWGQGTLVTVSS
VL: DIVMTQSPLSSPVTLGQPASISCRSSQSLVHFDGNTYLSWLHQRPGQPPRLLIYKISNRFSGVPDRFSGSGAGTDFTLKISRVEPEDVGVYYCMHATQFPYTFGQGTKLEIK
With B2, in test [1] (hGLP1R-MMH), the Ka stood at 61900 M⁻¹ s⁻¹ and the “dissociation rate constant (kd)” value is 0.000211 s⁻¹. Further, in test [2], the 50% effective concentration (EC50) is above 100 nM and the “HEK293/CRE-Luc Flow S/N” value is recorded as 18.0.

B3: H4H30439P (antibody, V domains shown)
VH: QVQLVESGGGVVQPGRSLRLSCAASGFTFSGYGIHWVRQAPGKGLVWVAVIWYDGSFKYYADSVKGRFTISRDNSKNTLYLQMNSLRAEDTAVYYCARGDSSSSGRYYYYGMDVWGQGTTVTVSS
VL: DIQMTQSPSSLSASVGDRVTITCRASQGIRNDLGWYQQKPGTAPKRLIFAASSLQSGVPSRFSGSGSGTEFTLTISSLQPEDFATYYCLQHNNYPPTFGGGTKVEIK
What is called Kd is the equilibrium constant for the complex coming apart. B3 had an EC50 in test [3] of 0.769 nM. Further, the “90 nM hGLP1R.mmh Bound” value in test [1] (antibody captured on anti-human Fc surface, 90 nM hGLP1R-MMH) worked out at 152.4 RU. Further, in test [1] (hGLP1R-MMH), the Ka is 277000 M⁻¹ s⁻¹ and the “dissociation rate constant (kd)” value was 0.000189 s⁻¹. The dissociation constant Kd in test [1] (hGLP1R-MMH, calculated from the kinetic rates) is 0.681 nM.
